Consider 6 molecules from patent US20250026827A1 (Alector, published 2025).

The target of assay [1] is T1, human SIRPβ1-Fc isoform 3 (Q5TFQ8) (human, UniProt Q5TFQ8 30-371, limits assumed).
T1 construct: Whole entry named; made in HEK293 cells; also called human SIRPβ1 isoform 3
The experiment in a line: ELISA on plate-coated huSirpB-Fc (Q5TFQ8.1), anti-human kappa-HRP, A450. For orientation: In an ELISA, binding on a coated surface is turned into a signal by an enzyme label.
Protocol: To ascertain if the selected anti-SIRPβ1 antibodies cross-reacted with other isoforms of human SIRPβ1 or with cynomolgus SIRPβ1, recombinant antigens based on human SIRPβ1 isoform 3 sequence and cynomolgus SIRPβ1 isoform 1 sequence were produced by transient transfection in HEK293 cells. Purified, Fc-tagged recombinant proteins were adsorbed onto 96-well plates at 1 μg/mL overnight at 4° C. Plates were subsequently washed with PBS+0.05% Tween-20 and blocked with 1% BSA+PBS for 2 hours at room temperature. Antibodies diluted in blocking buffer at 1 μg/mL were added to wells, serially diluted, and allowed to bind antigen overnight at 4° C. The following day, the primary antibodies were removed and anti-human kappa light chain antibody conjugated to horseradish peroxidase diluted 1:10,000 in blocking buffer were added to wells and incubated for 1 hour at room temperature. Plates were washed with PBS+0.05% Tween-20 and 100 μL of TMB substrate solution was added to wells to generate a colorimetric signal proportional to amount of anti-SIRPβ1 antibody bound to antigen. Once the reaction reached an appropriate color intensity, 100 μL of Stop solution was added to quench the enzyme.
(§1) Eight anti-SIRPβ1 antibodies (four parental antibodies and four corresponding affinity matured antibodies) were selected for analysis.

Assay [2] deals with T2, human SIRPβ1 domain 1 (D1) Fc fusion (human, UniProt O00241 30-148).
T2 construct: Made in HEK293/T cells with a heterologous signal peptide; also called Human SIRPβ1 D1-Fc; Human SIRPβ1-Fc; not shown: C-terminal human IgG1 Fc
The assay is described as follows: Octet, IgG avid. (In BLI a coated tip is dipped into the sample, and binding shifts an interference pattern.)

Assay [3] deals with T3, mouse SIRPα D1-Fc (mouse, UniProt P97797 32-150, limits assumed).
T3 construct: domain: D1
T3 sequence (looked up): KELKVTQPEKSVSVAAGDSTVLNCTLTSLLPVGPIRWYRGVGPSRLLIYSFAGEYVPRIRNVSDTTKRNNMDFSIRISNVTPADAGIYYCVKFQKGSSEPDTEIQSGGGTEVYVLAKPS
The assay is described as follows: Octet.

The target in assay [4] is T4, human SIRPα on cells (human, UniProt P78324 31-504).
T4 construct: Whole entry
The experiment in a line: flow cytometry.
Protocol: (§2) Cells were then washed twice and incubated in 100 ul FACS buffer containing 0.5 μg/ml PE-conjugated secondary antibody for 30 minutes on ice. Cells were washed twice in cold FACS buffer and acquired on a BD FACS Canto. Data analysis and calculation of mean fluorescence intensity (MFI) values or 00 positive cells was performed with FlowJo (TreeStar) software version 10.0.7.
(§3) Given the high sequence similarity between receptors of the SIRPβ family, anti-SIRPβ1 antibodies were also screened for cross-reactivity to human SIRPα.

Assay [5] concerns the target T5, mouse SIRPβ1 on CHO cells (mouse).
T5 construct: Whole entry
T5 chain: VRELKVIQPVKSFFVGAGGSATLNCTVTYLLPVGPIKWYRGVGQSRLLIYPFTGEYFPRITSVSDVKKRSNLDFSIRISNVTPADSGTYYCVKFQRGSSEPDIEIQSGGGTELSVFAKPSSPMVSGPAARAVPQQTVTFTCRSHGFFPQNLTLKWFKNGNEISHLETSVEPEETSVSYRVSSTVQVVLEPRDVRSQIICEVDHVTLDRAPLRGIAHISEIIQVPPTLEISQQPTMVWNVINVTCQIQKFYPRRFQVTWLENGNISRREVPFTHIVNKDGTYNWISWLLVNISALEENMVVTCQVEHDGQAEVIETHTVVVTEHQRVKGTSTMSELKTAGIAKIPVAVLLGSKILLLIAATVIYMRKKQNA
The assay is described as follows: flow cytometry.
Protocol: as §2, §3

Assay [6] addresses T6, human SIRPβ1 isoform 1 on cells (human, UniProt O00241 30-398).
T6 construct: On CHO cells (low level), on BWZ/BW5147.G.1.4 cells (reporter cells co-express human DAP12) or on primary human myeloid cells; also called huSIRPβ1; BWZ-huSIRPβ1
The assay is described as follows: flow cytometry.
Protocol: as §2, §3

Assay [7] addresses T7, human SIRPα domain 1 (D1) Fc fusion (human, UniProt P78324 32-149).
T7 construct: also called human SIRPα D1-Fc; Human SIRPα Fc; not shown: C-terminal human IgG1 Fc
The experiment in a line: Octet, IgG avid.

Assay [8] deals with T6, human SIRPβ1 isoform 1 on cells. The experiment in a line: cell binding titration; target not given.
For assay [9], the target named is T4, human SIRPα on cells. The experiment in a line: flow cytometry. This is another data set of the same source. In general terms: Flow cytometry measures light scatter and fluorescence of single cells or particles in a stream.
Protocol: (§4) Initial characterization of anti-SIRPβ1 antibodies involved determining their ability to bind cell lines expressing human or mouse SIRPβ1. Cells were harvested, plated at 10⁶/ml in a 96-well plate, washed, and incubated in 100 μl FACS buffer containing 1 μg/ml anti-SIRPβ1 antibody for 0.5 hour on ice. Cells were then washed twice and incubated in 100 μl FACS buffer containing 0.5 μg/ml PE-conjugated secondary antibody for 30 minutes on ice. Cells were washed twice in cold FACS buffer and acquired on a BD FACS Canto. Data analysis and calculation of mean fluorescence intensity (MFI) values or 00 positive cells was performed with FlowJo (TreeStar) software version 10.0.7.
(§5) As a negative control, the anti-SIRPβ1 antibodies were also screened for surface binding to CHO cells overexpressing recombinant mouse SIRPβ31. […] Given the high sequence similarity between receptors of the SIRPβ family, anti-SIRPβ1 antibodies were also screened for cross-reactivity to human and mouse SIRPα.
In assay [10] the target is T8, mouse SIRPα on cells (mouse, UniProt P97797 32-513).
T8 construct: whole, on cells
T8 sequence (looked up): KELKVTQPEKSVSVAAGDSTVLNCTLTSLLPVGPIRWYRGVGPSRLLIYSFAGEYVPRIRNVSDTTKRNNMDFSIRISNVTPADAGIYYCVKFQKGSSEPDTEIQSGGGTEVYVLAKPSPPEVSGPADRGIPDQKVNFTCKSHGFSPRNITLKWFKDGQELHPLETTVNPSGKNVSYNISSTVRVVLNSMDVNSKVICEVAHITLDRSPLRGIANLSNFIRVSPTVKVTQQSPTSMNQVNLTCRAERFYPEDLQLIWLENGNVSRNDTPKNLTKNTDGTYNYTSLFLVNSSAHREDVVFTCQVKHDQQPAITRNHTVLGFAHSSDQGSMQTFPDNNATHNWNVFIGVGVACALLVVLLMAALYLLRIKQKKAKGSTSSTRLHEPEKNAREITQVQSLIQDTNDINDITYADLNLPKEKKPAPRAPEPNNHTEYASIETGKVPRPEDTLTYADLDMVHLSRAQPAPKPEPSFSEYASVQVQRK
The assay is described as follows: flow cytometry.
Protocol: as §4, §5

Assay [11] deals with T5, mouse SIRPβ1 on CHO cells. The assay is described as follows: flow cytometry.
Protocol: as §4, §5
For assay [12], the target named is T6, human SIRPβ1 isoform 1 on cells. The assay is described as follows: flow cytometry. This is another data set of the same source.
Protocol: as §4, §5
Assay [13] has the same target. The experiment in a line: cell-based or functional assay.
The target in assay [14] is T9, Soluble, human SIRPβ1-Fc isoform 1 (O00241) (human, UniProt O00241 30-371, limits assumed).
T9 construct: Whole entry named; also called human SIRPβ1 isoform 1
The experiment in a line: ELISA, antigen coated.
Description: Recombinant antigen based on the sequence of SIRPβ1 isoform 1 was used for selecting anti-SIRPβ1 antibodies from yeast library pools. To ascertain if the selected anti-SIRPβ1 antibodies cross-reacted with other isoforms of human SIRPβ1 or with cynomolgus SIRPβ1, recombinant antigens based on human SIRPβ1 isoform 3 sequence and cynomolgus SIRPβ1 isoform 1 sequence were produced by transient transfection in HEK293 cells. Purified, Fc-tagged recombinant proteins were adsorbed onto 96-well plates at 1 μg/mL overnight at 4° C. Plates were subsequently washed with PBS+0.05% Tween-20 and blocked with 1% BSA+PBS for 2 hours at room temperature. Antibodies diluted in blocking buffer at 1 μg/mL were added to wells, serially diluted, and allowed to bind antigen overnight at 4° C. The following day, the primary antibodies were removed and anti-human kappa light chain antibody conjugated to horseradish peroxidase diluted 1:10,000 in blocking buffer were added to wells and incubated for 1 hour at room temperature. Plates were washed with PBS+0.05% Tween-20 and 100 μL of TMB substrate solution was added to wells to generate a colorimetric signal proportional to amount of anti-SIRPβ1 antibody bound to antigen. Once the reaction reached an appropriate color intensity, 100 μL of Stop solution was added to quench the enzyme.
as §1

Assay [15] addresses T4, human SIRPα on cells. The experiment in a line: flow cytometry. This is another data set of the same source.
The target in assay [16] is T8, mouse SIRPα on cells. The experiment in a line: flow cytometry. This is another data set of the same source.
Assay [17] has as its target T5, mouse SIRPβ1 on CHO cells. The assay is described as follows: flow cytometry.
The target of assay [18] is T7, human SIRPα domain 1 (D1) Fc fusion. The assay is described as follows: Octet.
Assay [19] has as its target T10, SIRPγ on Jurkat cells (human, UniProt Q9P1W8 29-387).
T10 construct: whole, on cells
The experiment in a line: flow cytometry on Jurkat cells (endogenous SIRPγ), fold over isotype (MFI).
Protocol: (§6) To determine antigen specificity of anti-SIRPβ1 antibodies of the present disclosure, cell-based affinity measurements were performed to ascertain the apparent affinities of affinity-matured anti-SIRPβ 1 antibodies to cell surface-expressed antigen. BW5147.G.1.4 cells, an immortalized mouse T-cell line, were engineered to overexpress human SIRPβ1 (BWZ-huSIRPβ1) or human SIRPα (BWZ-huSIRPα). Jurkat cells, an immortalized human T cell line, endogenously express SIRPγ.
(§7) In these experiments, two antibodies previously described were used as positive controls: antibody 18D5 (an anti-SIRPβ antibody that cross-reacts with SIRPα and SIRPβ) and antibody KWAR23 (an anti-SIRPβ antibody that cross-reacts with SIRPα, SIRPβ, and SIRPγ). These antibodies were recombinantly produced on a human IgG4 backbone. […] Serial dilutions of each of the anti-SIRPβ1 monoclonal antibodies and control antibodies were added to 10⁵ cells and allowed to achieve binding equilibrium at 4° C. After addition of fluorescently-labeled secondary antibody and brief washing steps, MFI values as a function of titrated antibody concentration were recorded via FACS analysis.
(§8) Receptor bound antibodies were detected by staining cells with anti-human IgG PE secondary antibody (Southern Biotech). Curves were fit using nonlinear regression analysis with Graphpad Prism 6 software.

Assay [20] has as its target T6, human SIRPβ1 isoform 1 on cells. The assay is described as follows: flow cytometry titration, BWZ-huSIRPβ1 cells.
Protocol: as §7
In Table 14 below, EC50 values assign relative affinity by adding increasing concentrations of antibody variants to cells overexpressing SIRPβ 1. Receptor bound antibodies were detected by staining cells with anti-human IgG PE secondary antibody (Southern Biotech). Curves were fit using nonlinear regression analysis with Graphpad Prism 6 software.
The target of assay [21] is T4, human SIRPα on cells. The assay is described as follows: flow cytometry on BWZ cells overexpressing human SIRPα, fluorescent secondary antibody, MFI.
Protocol: as §6, §7, §8

Where two headings read alike, the source gives them in different places.

In general, Kd refers to the free concentration of one partner at which half of the binding sites on the other are occupied at equilibrium, for simple one-to-one binding. Low values mean tighter binding, high ones weaker binding. The EC50 is the concentration that produces a half-maximal response. Read a high EC50 as lower potency in that assay.

T6 sequence (O00241 30-398): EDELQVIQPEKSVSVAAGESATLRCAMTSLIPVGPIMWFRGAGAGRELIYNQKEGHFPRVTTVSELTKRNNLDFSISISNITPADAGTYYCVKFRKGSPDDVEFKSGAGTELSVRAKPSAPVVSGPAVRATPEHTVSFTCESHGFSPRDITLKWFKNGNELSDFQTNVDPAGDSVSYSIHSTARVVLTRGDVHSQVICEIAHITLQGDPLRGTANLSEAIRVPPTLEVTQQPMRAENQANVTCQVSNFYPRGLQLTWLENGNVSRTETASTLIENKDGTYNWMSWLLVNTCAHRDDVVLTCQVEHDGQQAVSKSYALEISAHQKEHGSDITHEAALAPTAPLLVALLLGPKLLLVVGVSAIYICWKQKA
T10 sequence (Q9P1W8 29-387): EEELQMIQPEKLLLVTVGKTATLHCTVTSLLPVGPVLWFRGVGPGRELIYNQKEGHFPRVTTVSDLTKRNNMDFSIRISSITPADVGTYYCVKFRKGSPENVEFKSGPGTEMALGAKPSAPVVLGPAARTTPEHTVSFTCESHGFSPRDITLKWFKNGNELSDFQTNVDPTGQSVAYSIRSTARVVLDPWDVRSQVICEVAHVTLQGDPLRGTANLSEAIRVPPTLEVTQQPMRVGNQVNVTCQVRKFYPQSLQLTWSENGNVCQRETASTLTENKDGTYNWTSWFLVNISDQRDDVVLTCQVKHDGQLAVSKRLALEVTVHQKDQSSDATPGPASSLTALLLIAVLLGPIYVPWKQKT
T9 sequence (O00241 30-371 limits assumed, one chain of several): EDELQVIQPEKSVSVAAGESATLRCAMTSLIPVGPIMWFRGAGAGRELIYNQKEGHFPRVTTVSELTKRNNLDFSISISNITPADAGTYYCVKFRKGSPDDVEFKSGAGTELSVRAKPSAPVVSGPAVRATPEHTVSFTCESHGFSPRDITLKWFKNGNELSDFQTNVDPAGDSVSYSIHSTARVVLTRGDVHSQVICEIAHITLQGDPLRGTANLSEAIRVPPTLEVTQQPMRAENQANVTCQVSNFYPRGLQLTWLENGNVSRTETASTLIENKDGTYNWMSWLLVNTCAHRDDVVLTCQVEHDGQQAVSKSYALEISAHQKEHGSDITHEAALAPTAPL
T1 sequence (Q5TFQ8 30-371 limits assumed, one chain of several): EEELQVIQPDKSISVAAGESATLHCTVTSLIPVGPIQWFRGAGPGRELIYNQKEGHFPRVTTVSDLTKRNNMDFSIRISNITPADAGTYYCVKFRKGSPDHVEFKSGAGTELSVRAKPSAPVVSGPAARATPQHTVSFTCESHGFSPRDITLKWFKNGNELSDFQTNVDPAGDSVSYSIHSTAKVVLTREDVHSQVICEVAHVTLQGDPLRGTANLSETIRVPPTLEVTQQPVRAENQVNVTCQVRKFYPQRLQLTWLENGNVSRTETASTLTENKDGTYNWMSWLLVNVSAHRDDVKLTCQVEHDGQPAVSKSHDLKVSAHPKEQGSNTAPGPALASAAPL
T2 sequence (O00241 30-148 limits assumed): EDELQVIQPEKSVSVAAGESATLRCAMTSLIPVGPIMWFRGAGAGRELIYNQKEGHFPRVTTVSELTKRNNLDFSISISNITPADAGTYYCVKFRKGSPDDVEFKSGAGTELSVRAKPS

B1: SB-1 (antibody, V domains shown)
VH: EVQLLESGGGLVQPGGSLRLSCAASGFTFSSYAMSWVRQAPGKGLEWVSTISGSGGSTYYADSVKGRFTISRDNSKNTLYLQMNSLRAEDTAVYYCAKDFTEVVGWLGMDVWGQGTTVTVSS
VL: EIVMTQSPGTLSLSPGERATLSCRASQSVSSSYLAWYQQKPGQAPRLLIYGASSRATGIPDRFSGSGSGTDFTLTISRLEPEDFAVYYCQLLGSSPRTFGGGTKVEIK
notes: IgG; also called SB-1 (p)
Turning to B1, the binding result is given as “no binding (tested: 1 ug/mL)” in assay [1]; “no binding (tested: 100 nM)” in assay [3]; “no binding (tested: 100 nM)” in [7]; “no binding (tested: 1 ug/ml)” in assay [15]; “no binding (tested: 1 ug/ml)” in assay [16]; “no binding (tested: 1 ug/ml)” in assay [17]. The Kd in assay [2] came to 0.966 nM. The FOB came to 1 fold over background in assay [4]; 1 fold over background in assay [5]; 2 fold over background in assay [6]; 2.3 fold over background in assay [9]; 1.4 fold over background in assay [10]; 1.1 fold over background in [11]. The same molecule yielded an FOB in [12] of 5.7 fold over background. Further, the EC50 in [8] is 0.072 nM; in assay [14], 0.034 nM. In assay [13], the “viable Raji-Luc cells with neutrophils and anti-CD20” value (from here on “viable Raji-Luc cells”) was ~50%.

B2: SB-4 (antibody, V domains shown)
VH: QVQLVQSGAEVKKPGASVKVSCKASGYTFTSYGISWVRQAPGQGLEWMGWISAYNGNTNYAQKLQGRVTMTTDTSTSTAYMELRSLRSDDTAVYYCARSGTHFGTYSYSNWFDPWGQGTLVTVSS
VL: EIVLTQSPGTLSLSPGERATLSCRASQSVSSSYLAWYQQKPGQAPRLLIYGASSRATGIPDRFSGSGSGTDFTLTISRLEPEDFAVYYCQQYADAPITFGGGTKVEIK
notes: IgG
B2: the binding result in [3] is reported as “no binding (tested: 100 nM)”; in assay [18] it was “no binding (tested: 100 nM)”; in assay [15], “no binding (tested: 1 ug/ml)”; in [16], “no binding (tested: 1 ug/ml)”; in assay [17], “no binding (tested: 1 ug/ml)”. Moreover, the FOB came out at 2 fold over background in assay [9], 0.9 fold over background in assay [10], 1.2 fold over background in [11] and 1.7 fold over background in assay [12]. In addition, the “viable Raji-Luc cells” value in [13] is ~50%.

B3: SB-8-13 (antibody, V domains shown)
VH: QVQLQESGPGLVKPSETLSLTCAVSGYSISAHYYWGWIRQPPGKGLEWIGSIFHSGHTYYNPSLKSRVTISVDTSKNQFSLKLSSVTAADTAVYYCARGGAMTPAGMDVWGQGTTVTVSS
VL: EIVMTQSPGTLSLSPGERATLSCRASQSVSSSYLAWYQQKPGQAPRLLIYGASNRATGIPDRFSGSGSGTDFTLTISRLEPEDFAVYYCQQVYSSPYTFGGGTKVEIK
notes: IgG
With B3, the binding result is given as “no binding (tested: 1 ug/mL)” in [1]; “no binding (tested: 100 nM)” in assay [7]; “no binding (tested: Log nM about 1.8 (about 60 nM))” in assay [19]; “no binding (tested: Log nM about 0.8 (about 7 nM))” in [21]; “no binding (tested: 1 ug/ml)” in assay [17]. Besides, the FOB in [4] was determined as 1 fold over background; in [5] it was 2 fold over background; in [6] it was 7 fold over background. The EC50 in assay [8] came to 0.253 nM; in assay [14], 0.019 nM; in [20], 0.199 nM.

B4: SB-2-8 (antibody, V domains shown)
VH: QVQLVESGGGVVQPGRSLRLSCAASGFTFLDYGMHWVRQAPGKGLEWVSAISAFAGSTYADSVKGRFTISRDNSKNTLYLQMNSLRAEDTAVYYCARDQTAAAAIWGMDVWGQGTTVTVSS
VL: EVVLTQSPGTLSLSPGERATLSCRASQSVSSSYLAWYQQKPGQAPRLLIYGASSRATGIPDRFSGSGSGTDFTLTISRLEPEDFAVYYCQQSSSHPFTFGGGTKVEIK
notes: IgG
On to B4, for which the FOB is 1 fold over background in assay [4], 1 fold over background in [5] and 5 fold over background in assay [6]. The binding result in assay [7] is on record as “no binding (tested: 100 nM)”; in assay [19] it was “no binding (tested: Log nM about 1.8 (about 60 nM))”; in assay [21], “no binding (tested: Log nM about 0.8 (about 7 nM))”; in assay [17] it was “no binding (tested: 1 ug/ml)”. Besides, the figures for the EC50 in assay [8] and in assay [20] were 0.174 nM and 0.203 nM, respectively.

B5: SB-40-20 (antibody, V domains shown)
VH: QVQLVQSGAEVKKPGASVKVSCKASGYTFTSFYISWVRQAPGQGLEWMGIINPSSGHTNYAQKLQGRVTMTTDTSTSTAYMELSSLRSEDTAVYYCARDTGEYSYSPHGMDVWGQGTTVTVSS
VL: EIVLTQSPATLSLSPGERATLSCRASQSVSSYLAWYQQKPGQAPRLLIYDSSNRATGIPARFSGSGSGTDFTLTISSLEPEDFAVYYCQQRDEHPPWTFGGGTKVEIK
notes: IgG
For the molecule B5, the FOB in [4] was 1 fold over background; in assay [5], 2 fold over background; in assay [6] it was 3 fold over background. The binding result in assay [7] is on record as “no binding (tested: 100 nM)”; in assay [19], “no binding (tested: Log nM about 1.8 (about 60 nM))”; in assay [21] it was “no binding (tested: Log nM about 0.8 (about 7 nM))”; in [17] it was “no binding (tested: 1 ug/ml)”. Moreover, the EC50 in [8] is 0.405 nM; in [20], 8.7 nM.

B6: SB-3 (antibody, V domains shown)
VH: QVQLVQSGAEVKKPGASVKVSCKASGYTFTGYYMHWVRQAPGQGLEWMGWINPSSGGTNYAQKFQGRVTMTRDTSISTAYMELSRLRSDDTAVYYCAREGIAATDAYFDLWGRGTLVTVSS
VL: EIVMTQSPATLSLSPGERATLSCRASQSVSSYLAWYQQKPGQAPRLLIYDASNRATGIPARFSGSGSGTDFTLTISSLEPEDFAVYYCQQRLFHPPTFGGGTKVEIK
notes: IgG
Regarding B6, the binding result is recorded as “no binding (tested: 100 nM)” in assay [3]; “no binding (tested: 100 nM)” in assay [18]; “no binding (tested: 1 ug/ml)” in assay [15]; “no binding (tested: 1 ug/ml)” in assay [16]; “no binding (tested: 1 ug/ml)” in assay [17]. In addition, the FOB is 1.8 fold over background in [9], 1.3 fold over background in [10], 1.3 fold over background in assay [11] and 2.5 fold over background in assay [12]. Also, the “viable Raji-Luc cells” value in [13] was ~50%.
